Measurements reported in patent US20180016327A1 (Chugai, published 2018).

Molecular target: T1, human C5 (human, UniProt P01031 19-673; P01031 678-1676, Beta and alpha chains are disulfide-linked and the protein is glycosylated.)
T1 construct: Either in-house recombinant C5 or plasma derived C5 (CALBIOCHEM) was used; also called recombinant human C5; plasma derived human C5
Experiment: Biacore, captured antibody, pH 7.4, 37 C;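 further: biacore binding response of anti-C5 antibody light chain variants captured on chip with human C5 injected, ACES running buffer containing 1.2 mM CaCl₂, parent light chain antibody set to 100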
Method: The light chain variants were tested for the binding affinity to C5 at pH 7.4 and at 37 degrees C. using Biacore T200 instrument (GE Healthcare) or Biacore 4000 instrument (GE Healthcare). […] Anti-C5 antibodies were captured on an immobilized molecule, and then human C5 was injected. The running buffer used was pH 7.4 ACES Buffer containing 1.2 mM Ca (20 mM ACES, 150 mM NaCl, 1.2 mM CaCl₂, 0.05% Tween 20). A value, % binding, was determined by normalizing binding response with that of antibody comprising parent light chain as 100.

Binder	% binding (parent = 100) [%]
CFP0018 18L 92E (antibody, V domains shown) VH: QVQLVQSGAEVKKPGSSVKVSCKASGGTFSSYAISWVRQAPGQGLEWMGGIIPIFGTANYAQKFQGRVTITADESTSTAYMELSSLRSEDTAVYYCARQLYGYYELDIWGQGTLVTVSS VL: DIQMTQSPSSLSASVGDRVTITCRASQSISDDLAWYQQKPGKAPKLLIYEASSLQSGVPSRFSGSGSGTDFTLTISSLQPEDFATYYCQQYESYPLTFGQGTKVEIK	40.9
CFP0015 (antibody, V domains shown, IgG format) VH: QVQLLESGGGLVQPGGSLRLSCAASGFTFSSYAMSWVRQAPGKGLEWVSAISGSGGSTYYADSVKGRFTISRDNSKNTLYLQMNSLRAEDTAVYYCARGDQIWYDQWYYFDMWGQGTLVTVSS VL: DIQMTQSPSSLSASVGDRVTITCRASQSIEDDLAWYQQKPGKAPKLLIYEASNLQSGVPSRFSGSGSGTDFTLTISSLQPEDFATYYCQQYDSSPLTFGQGTKVEIK	100
CFP0018 18L 96W (antibody, V domains shown) VH: QVQLVQSGAEVKKPGSSVKVSCKASGGTFSSYAISWVRQAPGQGLEWMGGIIPIFGTANYAQKFQGRVTITADESTSTAYMELSSLRSEDTAVYYCARQLYGYYELDIWGQGTLVTVSS VL: DIQMTQSPSSLSASVGDRVTITCRASQSISDDLAWYQQKPGKAPKLLIYEASSLQSGVPSRFSGSGSGTDFTLTISSLQPEDFATYYCQQYNSYPWTFGQGTKVEIK	16.9
CFP0018 18L 94F (antibody, V domains shown) VH: QVQLVQSGAEVKKPGSSVKVSCKASGGTFSSYAISWVRQAPGQGLEWMGGIIPIFGTANYAQKFQGRVTITADESTSTAYMELSSLRSEDTAVYYCARQLYGYYELDIWGQGTLVTVSS VL: DIQMTQSPSSLSASVGDRVTITCRASQSISDDLAWYQQKPGKAPKLLIYEASSLQSGVPSRFSGSGSGTDFTLTISSLQPEDFATYYCQQYNSFPLTFGQGTKVEIK	28.6
CFP0018 18L 92Q (antibody, V domains shown) VH: QVQLVQSGAEVKKPGSSVKVSCKASGGTFSSYAISWVRQAPGQGLEWMGGIIPIFGTANYAQKFQGRVTITADESTSTAYMELSSLRSEDTAVYYCARQLYGYYELDIWGQGTLVTVSS VL: DIQMTQSPSSLSASVGDRVTITCRASQSISDDLAWYQQKPGKAPKLLIYEASSLQSGVPSRFSGSGSGTDFTLTISSLQPEDFATYYCQQYQSYPLTFGQGTKVEIK	125
CFP0018 18L 92T (antibody, V domains shown) VH: QVQLVQSGAEVKKPGSSVKVSCKASGGTFSSYAISWVRQAPGQGLEWMGGIIPIFGTANYAQKFQGRVTITADESTSTAYMELSSLRSEDTAVYYCARQLYGYYELDIWGQGTLVTVSS VL: DIQMTQSPSSLSASVGDRVTITCRASQSISDDLAWYQQKPGKAPKLLIYEASSLQSGVPSRFSGSGSGTDFTLTISSLQPEDFATYYCQQYTSYPLTFGQGTKVEIK	95.1
CFP0018 18L 96F (antibody, V domains shown) VH: QVQLVQSGAEVKKPGSSVKVSCKASGGTFSSYAISWVRQAPGQGLEWMGGIIPIFGTANYAQKFQGRVTITADESTSTAYMELSSLRSEDTAVYYCARQLYGYYELDIWGQGTLVTVSS VL: DIQMTQSPSSLSASVGDRVTITCRASQSISDDLAWYQQKPGKAPKLLIYEASSLQSGVPSRFSGSGSGTDFTLTISSLQPEDFATYYCQQYNSYPFTFGQGTKVEIK	31.8
CFP0018 18L 96P (antibody, V domains shown) VH: QVQLVQSGAEVKKPGSSVKVSCKASGGTFSSYAISWVRQAPGQGLEWMGGIIPIFGTANYAQKFQGRVTITADESTSTAYMELSSLRSEDTAVYYCARQLYGYYELDIWGQGTLVTVSS VL: DIQMTQSPSSLSASVGDRVTITCRASQSISDDLAWYQQKPGKAPKLLIYEASSLQSGVPSRFSGSGSGTDFTLTISSLQPEDFATYYCQQYNSYPPTFGQGTKVEIK	18
CFP0018 18L 92P (antibody, V domains shown) VH: QVQLVQSGAEVKKPGSSVKVSCKASGGTFSSYAISWVRQAPGQGLEWMGGIIPIFGTANYAQKFQGRVTITADESTSTAYMELSSLRSEDTAVYYCARQLYGYYELDIWGQGTLVTVSS VL: DIQMTQSPSSLSASVGDRVTITCRASQSISDDLAWYQQKPGKAPKLLIYEASSLQSGVPSRFSGSGSGTDFTLTISSLQPEDFATYYCQQYPSYPLTFGQGTKVEIK	64.5
CFP0018 18L 96I (antibody, V domains shown) VH: QVQLVQSGAEVKKPGSSVKVSCKASGGTFSSYAISWVRQAPGQGLEWMGGIIPIFGTANYAQKFQGRVTITADESTSTAYMELSSLRSEDTAVYYCARQLYGYYELDIWGQGTLVTVSS VL: DIQMTQSPSSLSASVGDRVTITCRASQSISDDLAWYQQKPGKAPKLLIYEASSLQSGVPSRFSGSGSGTDFTLTISSLQPEDFATYYCQQYNSYPITFGQGTKVEIK	56
CFP0018 18L 94W (antibody, V domains shown) VH: QVQLVQSGAEVKKPGSSVKVSCKASGGTFSSYAISWVRQAPGQGLEWMGGIIPIFGTANYAQKFQGRVTITADESTSTAYMELSSLRSEDTAVYYCARQLYGYYELDIWGQGTLVTVSS VL: DIQMTQSPSSLSASVGDRVTITCRASQSISDDLAWYQQKPGKAPKLLIYEASSLQSGVPSRFSGSGSGTDFTLTISSLQPEDFATYYCQQYNSWPLTFGQGTKVEIK	33.7
CFP0018 18L 96H (antibody, V domains shown) VH: QVQLVQSGAEVKKPGSSVKVSCKASGGTFSSYAISWVRQAPGQGLEWMGGIIPIFGTANYAQKFQGRVTITADESTSTAYMELSSLRSEDTAVYYCARQLYGYYELDIWGQGTLVTVSS VL: DIQMTQSPSSLSASVGDRVTITCRASQSISDDLAWYQQKPGKAPKLLIYEASSLQSGVPSRFSGSGSGTDFTLTISSLQPEDFATYYCQQYNSYPHTFGQGTKVEIK	114
CFP0018 18L 96M (antibody, V domains shown) VH: QVQLVQSGAEVKKPGSSVKVSCKASGGTFSSYAISWVRQAPGQGLEWMGGIIPIFGTANYAQKFQGRVTITADESTSTAYMELSSLRSEDTAVYYCARQLYGYYELDIWGQGTLVTVSS VL: DIQMTQSPSSLSASVGDRVTITCRASQSISDDLAWYQQKPGKAPKLLIYEASSLQSGVPSRFSGSGSGTDFTLTISSLQPEDFATYYCQQYNSYPMTFGQGTKVEIK	46.2
CFP0018 18L 96Y (antibody, V domains shown) VH: QVQLVQSGAEVKKPGSSVKVSCKASGGTFSSYAISWVRQAPGQGLEWMGGIIPIFGTANYAQKFQGRVTITADESTSTAYMELSSLRSEDTAVYYCARQLYGYYELDIWGQGTLVTVSS VL: DIQMTQSPSSLSASVGDRVTITCRASQSISDDLAWYQQKPGKAPKLLIYEASSLQSGVPSRFSGSGSGTDFTLTISSLQPEDFATYYCQQYNSYPYTFGQGTKVEIK	23
CFP0018 18L 96V (antibody, V domains shown) VH: QVQLVQSGAEVKKPGSSVKVSCKASGGTFSSYAISWVRQAPGQGLEWMGGIIPIFGTANYAQKFQGRVTITADESTSTAYMELSSLRSEDTAVYYCARQLYGYYELDIWGQGTLVTVSS VL: DIQMTQSPSSLSASVGDRVTITCRASQSISDDLAWYQQKPGKAPKLLIYEASSLQSGVPSRFSGSGSGTDFTLTISSLQPEDFATYYCQQYNSYPVTFGQGTKVEIK	70.3
CFP0018 18L 94H (antibody, V domains shown) VH: QVQLVQSGAEVKKPGSSVKVSCKASGGTFSSYAISWVRQAPGQGLEWMGGIIPIFGTANYAQKFQGRVTITADESTSTAYMELSSLRSEDTAVYYCARQLYGYYELDIWGQGTLVTVSS VL: DIQMTQSPSSLSASVGDRVTITCRASQSISDDLAWYQQKPGKAPKLLIYEASSLQSGVPSRFSGSGSGTDFTLTISSLQPEDFATYYCQQYNSHPLTFGQGTKVEIK	17.6
CFP0018 18L 92S (antibody, V domains shown) VH: QVQLVQSGAEVKKPGSSVKVSCKASGGTFSSYAISWVRQAPGQGLEWMGGIIPIFGTANYAQKFQGRVTITADESTSTAYMELSSLRSEDTAVYYCARQLYGYYELDIWGQGTLVTVSS VL: DIQMTQSPSSLSASVGDRVTITCRASQSISDDLAWYQQKPGKAPKLLIYEASSLQSGVPSRFSGSGSGTDFTLTISSLQPEDFATYYCQQYSSYPLTFGQGTKVEIK	104
CFP0018 18L 93R (antibody, V domains shown) VH: QVQLVQSGAEVKKPGSSVKVSCKASGGTFSSYAISWVRQAPGQGLEWMGGIIPIFGTANYAQKFQGRVTITADESTSTAYMELSSLRSEDTAVYYCARQLYGYYELDIWGQGTLVTVSS VL: DIQMTQSPSSLSASVGDRVTITCRASQSISDDLAWYQQKPGKAPKLLIYEASSLQSGVPSRFSGSGSGTDFTLTISSLQPEDFATYYCQQYNRYPLTFGQGTKVEIK	136
CFP0018 18L 93G (antibody, V domains shown) VH: QVQLVQSGAEVKKPGSSVKVSCKASGGTFSSYAISWVRQAPGQGLEWMGGIIPIFGTANYAQKFQGRVTITADESTSTAYMELSSLRSEDTAVYYCARQLYGYYELDIWGQGTLVTVSS VL: DIQMTQSPSSLSASVGDRVTITCRASQSISDDLAWYQQKPGKAPKLLIYEASSLQSGVPSRFSGSGSGTDFTLTISSLQPEDFATYYCQQYNGYPLTFGQGTKVEIK	79.1
CFP0018 18L 93N (antibody, V domains shown) VH: QVQLVQSGAEVKKPGSSVKVSCKASGGTFSSYAISWVRQAPGQGLEWMGGIIPIFGTANYAQKFQGRVTITADESTSTAYMELSSLRSEDTAVYYCARQLYGYYELDIWGQGTLVTVSS VL: DIQMTQSPSSLSASVGDRVTITCRASQSISDDLAWYQQKPGKAPKLLIYEASSLQSGVPSRFSGSGSGTDFTLTISSLQPEDFATYYCQQYNNYPLTFGQGTKVEIK	107
CFP0018 18L 93D (antibody, V domains shown) VH: QVQLVQSGAEVKKPGSSVKVSCKASGGTFSSYAISWVRQAPGQGLEWMGGIIPIFGTANYAQKFQGRVTITADESTSTAYMELSSLRSEDTAVYYCARQLYGYYELDIWGQGTLVTVSS VL: DIQMTQSPSSLSASVGDRVTITCRASQSISDDLAWYQQKPGKAPKLLIYEASSLQSGVPSRFSGSGSGTDFTLTISSLQPEDFATYYCQQYNDYPLTFGQGTKVEIK	23.8
